Results on one substance are retold here after article PMC8263772.

The target of this test is dog angiotensin-converting enzyme 2 (dACE2) ectodomain, 6xHis (dog). Put plainly: SPR.

The substance “SARS-CoV-2 spike (S) protein receptor binding domain (RBD), wild type (from UniProt P0DTC2) (domain or fragment)” displayed a Kd of 123 nM.
